Experimental findings from patent publication US20250179196A1 (Janssen / Centocor, published 2025) are described below.

As usually defined, the EC50 is the midpoint of the concentration-response curve. Lower therefore signals higher potency in that assay. For orientation: Kd means the concentration at which binding is half-saturated. What is called koff is a measure of how fast the partners let go of each other. For orientation: kon means a measure of how fast the partners come together.

Experiment [1] has as its target T1, rat IL-23R extracellular domain (ECD) protein (rat).
T1 construct: also called rat IL-23R ECD; F1LX96 amino acids 24-354
T1 chain: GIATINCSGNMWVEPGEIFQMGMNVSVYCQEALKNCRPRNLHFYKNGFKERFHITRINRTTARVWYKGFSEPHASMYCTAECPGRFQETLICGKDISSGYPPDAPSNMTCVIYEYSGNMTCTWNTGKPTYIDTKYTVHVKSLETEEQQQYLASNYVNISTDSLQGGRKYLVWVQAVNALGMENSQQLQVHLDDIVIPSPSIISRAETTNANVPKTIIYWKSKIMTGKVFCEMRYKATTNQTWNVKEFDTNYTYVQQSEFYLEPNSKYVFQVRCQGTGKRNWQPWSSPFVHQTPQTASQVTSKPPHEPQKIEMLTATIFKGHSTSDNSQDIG
Nature of the experiment: SPR Biacore 8K, supernatant. A digest of the protocol: (§1)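 mAbs captured (~150 RU) on Biacore 8K; human or rat IL-23R ECD injected at 0.8–500 nM (5-fold series) at 25 °C in HBS-P+ with 100 μg/ml BSA. Association 3 min at 50 μL/min, dissociation 30 min. Ka, Kd and KD from Langmuir 1:1 fit.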
(In SPR one partner is held on a chip, and binding of the other changes the refractive index at the surface.)

Experiment [2] deals with T2, human IL-23R on the cell surface (human, UniProt Q5VWK5 24-629).
T2 construct: whole, on cells; also called cell surface human IL-23R; IL-23R on iLite cells, HEK-IL-23R cells and primary human immune cells
T2 sequence (looked up): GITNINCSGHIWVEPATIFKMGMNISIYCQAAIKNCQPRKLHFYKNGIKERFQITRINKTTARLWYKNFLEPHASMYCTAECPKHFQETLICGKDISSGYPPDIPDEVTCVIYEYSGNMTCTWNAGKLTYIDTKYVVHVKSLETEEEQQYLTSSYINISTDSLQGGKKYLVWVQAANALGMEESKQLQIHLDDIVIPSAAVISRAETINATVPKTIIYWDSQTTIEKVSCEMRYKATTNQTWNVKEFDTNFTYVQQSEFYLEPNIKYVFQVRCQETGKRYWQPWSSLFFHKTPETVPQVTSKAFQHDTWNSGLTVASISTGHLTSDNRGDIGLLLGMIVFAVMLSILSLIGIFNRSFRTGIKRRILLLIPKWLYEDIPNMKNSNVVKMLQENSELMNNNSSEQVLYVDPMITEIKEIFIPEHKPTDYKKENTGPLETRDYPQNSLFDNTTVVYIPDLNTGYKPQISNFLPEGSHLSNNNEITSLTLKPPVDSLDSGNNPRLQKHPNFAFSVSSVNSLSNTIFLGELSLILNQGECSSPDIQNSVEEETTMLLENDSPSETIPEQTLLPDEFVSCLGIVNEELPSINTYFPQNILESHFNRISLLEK
Nature of the experiment: flow cytometry, HEK-IL-23R cells (Expt E).

In experiment [3] the target is T3, Recombinant human IL-23 receptor (IL-23R) extracellular domain (ECD) protein (human, UniProt Q5VWK5 24-355).
T3 construct: also called human IL-23R ECD; hu IL-23R ECD
T3 sequence: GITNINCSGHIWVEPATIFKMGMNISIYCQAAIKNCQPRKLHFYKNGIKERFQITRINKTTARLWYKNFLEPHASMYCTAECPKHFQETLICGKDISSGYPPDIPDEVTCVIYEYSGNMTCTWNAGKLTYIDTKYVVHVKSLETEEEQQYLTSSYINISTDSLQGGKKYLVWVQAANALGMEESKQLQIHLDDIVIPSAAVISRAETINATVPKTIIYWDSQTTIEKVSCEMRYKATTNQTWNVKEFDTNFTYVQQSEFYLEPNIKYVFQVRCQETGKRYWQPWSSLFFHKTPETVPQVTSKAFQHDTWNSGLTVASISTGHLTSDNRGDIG
The experiment is described as follows: SPR Biacore 8K, supernatant, analysis 1. A digest of the protocol:
as §1

For experiment [4], the target named is T3, Recombinant human IL-23 receptor …. Nature of the experiment: SPR Biacore 8K, supernatant, analysis 2. A digest of the protocol: as §1

B1: I23RB173 (antibody, mouse IgG2a, kappa, V domains shown)
VH: DVQLQESGPGLVKPSQSLSLTCSVTGYSITSGYYWNWIRQFPGNKLEWMGYISYDGGNNYNPSLKNRISITRDTSKNQFFLKLNSVTTEDTATYYCARDAGLLPYYAMDYWGQGTTLTVSS
VL: DIKMTQSPAIMSASPGEKVTITCSASSSVSYMHWFQQKPGTSPKLWIYSTSNLASGVPARFSGSGSGTSYSLTISRMEAEDAATYYCQQRSSYPLTFGDGTKLEMKR
notes: mouse immunization; mouse IgG2a/kappa
In the case of B1, the binding result in experiment [1] is recorded as “no binding (tested: 500 nM)”. In experiment [2], this molecule yielded an EC50 of at most 0.0097 µM. Also, in experiment [3], the Kd is 0.0257 µM, the koff turned out to be 0.00759 s⁻¹ and the kon is 296000 M⁻¹ s⁻¹. Further, in experiment [4], the Kd stood at 0.0361 µM, the koff came out at 0.0103 s⁻¹ and the kon is 285000 M⁻¹ s⁻¹.

B2: I23RB71 (antibody, mouse IgG2a, kappa, V domains shown)
VH: DVQLQESGPDLVKPSQSLSLTCTVTDYSITRGYNWHWIRQFPGNKLEWMGYIHYSGSTNYNPSLKSRISITRDTSKNQFFLQLNSVTTEDTATYYCARQYGLKAMDYWGQGTSVTVSS
VL: DIVMTQSHKFMSTSVGDRVSITCKASQDVITAVAWYQQKPGQSPKLLIYSASYRYTGVPDRFTGSGSGTDFTFTISSVQAEDLAVYFCQQHFGTPYTFGSGTKLEMKR
notes: as for B1
Regarding B2, in experiment [1], the binding result is recorded as “no binding (tested: 500 nM)”. In addition, in experiment [2], the EC50 is at most 0.0097 µM. For the same molecule, in experiment [3], the Kd was 0.000328 µM, the koff stood at 0.000231 s⁻¹ and the kon was 704000 M⁻¹ s⁻¹. For the same molecule, in experiment [4], the Kd is 0.000129 µM, the koff came out at 4.63e-05 s⁻¹ and the kon was determined as 358000 M⁻¹ s⁻¹.

B3: I23RB165 (antibody, mouse IgG2a, kappa, V domains shown)
VH: EVQLQQSGAELVRPGASVKLSCTASGFNIKDSLMHWVKQRPEQGLEWIGWIDPEDGKTKYAPKFQDKATITADTSSNTAYLQLSSLTSEDTAIYYCARREVLDYFDYWGQGTTLTVSS
VL: DIVMTQSPASLAVSLGQRATISCRASKSVSTSGYSYMHWYQQKPGQPPKLLIYLASNLESGVPARFSGSGSGTDFTLNIHPVEEEDAATYYCQHSRELPLTFGAGTKLEMKR
notes: as for B1
For B3, in experiment [1], the binding result was “no binding (tested: 500 nM)”. Besides, the EC50 in experiment [2] is at most 0.0097 µM. Moreover, in experiment [3], the Kd is 0.0181 µM, the koff stood at 0.00806 s⁻¹ and the kon worked out at 446000 M⁻¹ s⁻¹. In experiment [4], the Kd came out at 0.0291 µM, the koff worked out at 0.00941 s⁻¹ and the kon came to 324000 M⁻¹ s⁻¹.
